{
  "source": "patent US20200165312A1",
  "about": "“COSMETIC COMPOSITION FOR IMPROVING SKIN CONDITIONS COMPRISING FUSION PROTEIN INCLUDING SKIN PENETRATION ENHANCING PEPTIDE” (LG HOUSEHOLD & HEALTH CARE LTD., priority 2017, published 2020)",
  "key": {"[1]": {"experiment": "Skin penetrability of growth factor fusion proteins (Franz glass cell, ELISA)", "format": "in vitro ADME, porcine", "conditions": "for Penetrated amount (%): 2 μg, 16 hours", "protocol": "(§1) Specifically, porcine skin (thickness: 0.7 mm, Medikinetics) was placed between upper and lower ends of Franz glass cell (standard diameter: 9 mm, Receiver 5 mL, Permegear), and TBS (50 mM Tris pH 7.5, 150 mM NaCl) including 1% BSA and 0.01% Tween 20 was prepared. Then, 500 μL of the TBS was applied to the upper end of the glass cell (Donor chamber), and 5 mL of the TBS was applied to the lower end of the glass cell, (Receiver chamber). Subsequently, 2 μg of PDGFa or T-PDGFa was applied to the upper end of the glass cell, followed by reaction for 16 hours. Then, a concentration of PDGFa or T-PDGFa was quantitatively analyzed using the ELISA kit (R&D Systems), and a relative amount of T-PDGFa to PDGFa was calculated as a penetrated amount (Table 7).\nSpecifically, porcine skin (thickness: 0.7 mm, Medikinetics) was placed between upper and lower ends of Franz glass cell (standard diameter: 9 mm, Receiver 5 mL, Permegear), and TBS (50 mM Tris pH 7.5, 150 mM NaCl) including 1% BSA and 0.01% Tween 20 was prepared. Then, 500 μL of the TBS was applied to the upper end of the glass cell (Donor chamber), and 5 mL of the TBS was applied to the lower end of the glass cell, (Receiver chamber).\nas §1, with “IGF-1” for “PDGFa”, “T-IGF-1” for “T-PDGFa”, “16).” for “7).”\nas §1, with “KGF” for “PDGFa”, “T-KGF” for “T-PDGFa”, “20).” for “7).”\nas §1, with “Tβ4” for “PDGFa”, “T-Tβ4” for “T-PDGFa”, “24).” for “7).”"}, "dermal papilla cells": {"test_system": "dermal papilla cells", "experiment": "Hair follicle stem cell proliferation: dermal papilla cells, Cell Counter Kit-8", "format": "cell-based", "conditions": "for Proliferation (%): control = 100", "protocol": "(§2) Specifically, dermal papilla cells were inoculated onto a 96-well plate and cultured for 24 hours to obtain cultures at a density of 6,000 cells per well. The cultures were washed with PBS and cultured in a serum-free DMEM medium for one day. The cells were washed with PBS again and cultured in a serum-free DMEM medium supplemented with 1 ng/mL T-PDGFa or PDGFa for one day. The cultures were obtained therefrom and a difference between proliferated amounts of cells was quantitively analyzed using the Cell Counter Kit-8 (Dojindo). Here, dermal papilla cells cultured in a serum-free DMEM medium without T-PDGFa or PDGFa were used as a control (Table 6).\nSpecifically, dermal papilla cells were inoculated onto a 96-well plate and cultured for 24 hours to obtain cultures at a density of 6,000 cells per well. The cultures were washed with PBS and cultured in a serum-free DMEM medium for one day. […] The cultures were obtained therefrom and a difference between proliferated amounts of cells was quantitively analyzed using the Cell Counter Kit-8 (Dojindo).\nas §2, with “T-IGF-1” for “T-PDGFa”, “IGF-1” for “PDGFa”, “15).” for “6).”\nas §2, with “10” for “1”, “T-KGF” for “T-PDGFa”, “KGF” for “PDGFa”, “19).” for “6).”\nas §2, with “10” for “1”, “T-Tβ4” for “T-PDGFa”, “Tβ4” for “PDGFa”, “23).” for “6).”"}},
  "data": [
    {"substance": "IGF-1: insulin-like growth factor-1 having an amino acid sequence of SEQ ID NO: 41", "values": [
      {"measurement": "Penetrated amount (%)", "setting": "[1]; relative to IGF-1", "value": "100 ± 14", "unit": "%"},
      {"measurement": "Proliferation (%)", "setting": "dermal papilla cells; 1 ng/mL T-IGF-1 or IGF-1, one day", "value": "440 ± 45", "unit": "%"}
    ]},
    {"substance": "Tβ4: thymosin beta 4 having an amino acid sequence of SEQ ID NO: 47", "values": [
      {"measurement": "Penetrated amount (%)", "setting": "[1]; relative to Tβ4", "value": "100 ± 21", "unit": "%"},
      {"measurement": "Proliferation (%)", "setting": "dermal papilla cells; 10 ng/mL T-Tβ4 or Tβ4, one day", "value": "260 ± 20", "unit": "%"}
    ]},
    {"substance": "PDGFa: platelet-derived growth factor subunit a having an amino acid sequence of SEQ ID NO: 35", "values": [
      {"measurement": "Penetrated amount (%)", "setting": "[1]; relative to PDGFa", "value": "100 ± 29", "unit": "%"},
      {"measurement": "Proliferation (%)", "setting": "dermal papilla cells; 1 ng/mL T-PDGFa or PDGFa, one day", "value": "1030 ± 19", "unit": "%"}
    ]},
    {"substance": "T-Tβ4: SEQ ID NO: 1 peptide C-terminal linked to N-terminal of Tβ4 via GG linker (NGSLNTHLAPILGGSDKPDMAEIEKFDKSKLKKTETQEKNPLPSKETIEQEKQAGES; Synthetic Fusion protein of T-T beta 4)", "values": [
      {"measurement": "Penetrated amount (%)", "setting": "[1]; relative to Tβ4", "value": "310 ± 28", "unit": "%"},
      {"measurement": "skin penetrability compared with the unfused protein", "setting": "[1]; summary of Tables 7, 12, 16, 20, 24", "value": "about three times higher"},
      {"measurement": "Proliferation (%)", "setting": "dermal papilla cells; 10 ng/mL T-Tβ4 or Tβ4, one day", "value": "220 ± 16", "unit": "%"},
      {"measurement": "cell proliferation effect compared with the unfused protein", "setting": "dermal papilla cells; dermal papilla cells", "value": "same level"}
    ]}
  ]
}
